Measurements taken from US20050238723A1, “Method of producing hydroxyalkyl starch derivatives” (priority 2002, published 2005).

Test system: normocythaemic mouse
Assay: EPO-bioassay in the normocythaemic mouse system (European Pharmacopeia)
Format: in vivo
Method: Quantitative determination of EPO protein was performed by measuring UV absorption at 280 nm according to the Eur. Phar. (European Pharmacopeia 4, Monography January 2002: 1316: erythropoietin concentrated solution) in a cuvette with 1 cm path length. In addition, EPO was quantitated by applying a RP-HPLC method using a RP-C4 column (Vydac Protein C4, Cat.# 214TP5410, Grace Vydac, Calif., US); the HPLC method was calibrated using the erythropoietin BRP 1 reference standard (European Pharmacopeia, Conseil de l'Europe B.P. 907-F67029, Strasbourg Cedex 1).
The EPO-bioassay in the normocythaemic mouse system indicates was performed according to the procedures described in the European Pharmacopeia; the laboratory that carried out the EPO assay was using the International BRP EPO reference standard preparation. For the HES-modified EPO A2 preparation a mean value for the specific activity of 294,600 units per mg EPO of protein was determined indicating an approximately 3-fold higher specific activity when compared to the International BRP EPO reference standard preparation that was included in the samples sent for activity assays.
In vivo activity determinations are performed in normocythemic mice by measuring the increase of reticulocytes after 4 days after animals received the foreseen dose of EPO or modified EPO forms. Assays are performed using the BRP EPO standard which is calibrated against the WHO EPO standard in the polycythemic mouse assay. EPO samples are diluted in phosphate buffered saline containing 1 mg/ml of bovine serum albumin (Sigma).
0.5 ml of the EPO test solution in Dulbecco's buffered saline (corresponding to an EPO protein equivalent of a 100, 80, 40 or 20 IU/ml of the BRP standard EPO) are infected subcutaneously per animal. Blood samples are taken after 4 days after injection and reticulocytes are stained with acridine orange; quantitation of reticulocytes is performed by flow-cytometry by counting a total of 30,000 blood cells within 5 hours after the blood sample was taken (see Ph. Eur, 2000, Erythropoietini solutio concentrata, 1316, pages 780-785) and European Pharmacopoeia (1996/2000, attachment 2002).

[1] = sample diluted with 4 volume of PBS

Substance	Calculated specific activity of EPO sample (basedon A280 nm and RP-HPLC determination) (sample as such)	Calculated specific activity of EPO sample (basedon A280 nm and RP-HPLC determination) [1]
Control EPO K2: control incubation of unmodified EPO-GT-1 with unmodified HES; Q-Sepharose fraction eluted with high salt	121,410 U/mg	114,100 U/mg
BRP EPO standard: erythropoietin BRP reference standard of the European Pharmacopeia [reference compound]	86,702 U/mg	81,200 U/mg
